# In the supplement of paper PMC12636428:
# System: Saccharomyces cerevisiae
# Assay: transcriptional activation domain activity (GFP:mCherry ratio, weighted mean of sorted bins, harmonized to initial dataset scale) (arbitrary fluorescence ratio units); higher = stronger transcriptional activation
# Conditions: beta-estradiol 1 µM; induction time 4 h
# Method in brief: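 Sorting into 8 bins by GFP:mCherry ratio followed a 4-hour hold at 30 °C after cultures were diluted 1:5 into SC with 1 uM beta-estradiol. The yeast diploids carried a GFP reporter and had barcoded protein tiles, fused to an estradiol-inducible synthetic transcription factor, integrated at URA3. Barcodes were then sequenced, and tiles with under 50 reads were removed. Activation activity is the read-weighted mean of bin median fluorescence, averaged across barcodes and linearly mapped onto the initial dataset scale.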
row,Sequence,transcriptional activation domain activity
1,DNDYNLDDTNNDNTNSMQSILEDFVSSEEALKFMPDAGRDARRYSEVVTSSFP,89300
2,KPKRKERSDKGKKRGPRAKDGTGTKAAENTLVAKAKPAAKGQEKRRGKADDAK,16700
3,LRQRILYIYKWFLRKIYPSINAAYYLSILSFSLMYLFDNTKYSNPFLWLIHTR,63900
4,METPEQPSAGRRRPHRKSRTGCAECRRRRIKCDEVKPACTACVRHDHPCVYPS,22000
5,SLLAKCDNGDVLKLQEAIEEDDAAREERERAERAAAALKREKEGSASRVLVTG,38800
6,MFMDTLLFVFMHYGWTFFLNCCLWCFMISLCFWYVKFCLPIGCYILILCMWQG,66200
7,MGVYLQKLGWGYRVWRFLFWMGLSLVSFLFFICCFSLSVHTCFFFFWLGRLGW,27300
8,PPPHLQLIYSCKAVRSSIQIFFDRAFIFKCSSSLWVCIVMFSRWLRTIRLFVW,85600
9,YFYMRLISCLGLIAHSPMLWATGHNSARHELIQKMDFFPKRIGYLLSRLCVLI,51600
10,CRESRGNRGTGEGGAGEQGKGEQGKGEQGKGEQGNRGRGSRETGEGGAGKQGN,29800
11,EQKVPEGVKDSWDASSDEEEEETAVKPSKPAAAANGKSPSAPAKAATHAKPAP,23500
12,VQVDDRSIMVSELAVKLGRNFRAQLAILVLFRVVTSKEHIIRKGWKDIIRIWL,62200
13,AASWILLGFFIKQLYEEFGWAIFHVVGANPKMKTMYQWYQIMICLLKFDFFFF,48500
14,AYMREMCVCLRDLFEALGCNKLTTLRIMLYNDAYCLGQSPTFRIRYLMSQLEP,49600
15,DDLLVCVAQVVDICYSVFFWFPGIQFQPRPPPLPPIINLWASNILMYTILWIS,60700
16,MDKLVQYEHTFLPPPHMQYLSYFDCLENLAHYIDAIHPNNLNMWFFLIYDQCI,63300
17,RPSSAVVHAPRSKRAALRPSAPARCPPSSSSSSSPSTSPSCRRPASPTTSTCP,30700
18,MDTSNSWFDASKVQSLNFDLQTNSYYSNARGSDPSSYAIEGEYKTLATDDLGN,14200
19,RCWFILLYVMPNIAGTFGLRYVPLQNHVARLWCYYLTGPYNASFVLTLSLVIA,37400
20,TTKPKEASKPKEDPKPRSKSPVKKEETKVEKPKEDPPKAEAKSIPATTAAAAV,59300
21,MYILILIFFLSFFLSFLNGSILYLGIVLLPCAYRRVYTVVCLVFTIQIVLRIK,61400

row,Sequence,transcriptional activation domain activity
1,ILLANLECFPKEKIWDKTIVGGRCLDPIQVKLIWVYNAAVNLGLDVVILILPQ,32200
2,TTGCREGFDWTPLSSVRYGGICGGRLFSICHTTFEGLAIIGMPNILICNYNVT,43300
3,LYLLVEILLLATYAVNYNVQYIVLETVTPIAVSSCLVPHTRFLFRLILFIQGL,63200
4,MVLVIQFYTVFFSFVYYFIFFSSSNLFSILCPPPPPPIIPIFCPLVGAFGFLF,42000
5,PFLFKITVLYVLEVIDGILDVSRFFPAVQLELCCLMFLWCCCGMVLLWFCLTR,58800
6,PTLLVALLALLIPHILIFIAKKINTIMTLSALHDRLMIRYYKFLVINVLVFFC,39300
7,RFVTNILVILSDRVNMEQLLKRIRKKAADFYHFTDLWQWCCAQFVKLLRKVYN,55100
8,RQAAMPKRKSPEEEDEEDEEEAPAKPAAKKAKTATAANGEKKSAGRGRPKKAA,31700
9,ESVRQHIVTETKNRVETYLAHCNPIVPHQRLTLLLARLLLRKLDFVTRLQWIL,50300
10,DRPRRDRADDKEATTPRSDAGSHKSRRRSRSRDDERRHSRRHRGGDGDFYRGG,17700
11,EMLSASKGRKKARMEEEDEDEWAGDGASKAKAKGKKAAKKPAKARAPKGKAAA,37400
12,MFVLYTSGWESLHFFFPSPLVSFVLCWVLTRSLYRFLEVWVAYSVCLLLFLHV,38600
13,PNGLMDPVLSTTNVSATSSNDNSANNSISSPEYTFGQFSMDSPHRTDATNTPI,23000
14,SGPRASSGAKAQSLSQRGAKRKAASTARTEGASSSKSSRARGGKARASRVAKT,32900
15,ESKNKAEEETEEGEGARGEEEEEEKEEQGESDNEDANSAEADKTKSKQGKKQR,31900
16,IFLACCAVFPGLGNLGFTLMQYRLGQRSFLSAAAENLTWVPFFFFFFGGLSVH,78400
17,SLLEELTMRLLETDESHIKKIKDLSRFVNMIILRLFATGRRMSIFRSLFALLL,62600
18,FDAALQHCRHGIMILNNSSRPEWMCQYLVPIFRRLSITPFFFGGVRPTRLPQL,68800
19,MCVVFFPVLLLWRLLFRSFSFLPVCIVSPVTRFFFLSFFPSQSIVSNSFILPA,29800
20,MFVGGWVMCLLFSKYSIYHLLAICALLFLLEYAFFFLLGIIHLLLLPTFFPFF,37800
21,LQQVCNVLPSFEQSSKIITDFFNTELETNEVSEVLDKTKIINDFTSSFLPSDE,50400

row,Sequence,transcriptional activation domain activity
1,ERKRRAKQKEKEERKKKKKKNANSKDARQRSESSSRREKRKDEDSDDEEEEGG,35700
2,YLPTLPDAFPFGADIGSLDAISNIPWMSWNPVMAHFSFPWFMDELEMPLELPD,102000
3,KLYYLAFYSGNILRRDLNLIIGVGKNWNLPAFWAPLLRYVTCPILAIIYSMAY,63600
4,ASSTAAASAASSAAAAKGGNNNAGKGAAAAKGGAAAAKGGAAAGGAAAAKGGA,24400
5,EGKEERGKGGEGEGGEGGEGERRDGKREGREGNGNRGGTEGKGERRKRKSQRE,28700
6,LALNDISRSVVAAGRVDGAVHITGVRDAVVAVAARQVRVHECRNVDLYLRCAS,44800
7,ILSRLSLCIGIIIAFVFCTIPLLTYHRDSPVLRCSLYNIIDNFFLPLYLFIVW,53400
8,HLCHLVPSLPFHLPFFFFEPFLSKTFTSFFLFFFLWLSPLNTNHPPIFLFFHT,80200
9,AEAGTSKTAAKAEATPVEGTSAPVEGKAQKKEKKEKKPPAEEAGAGKKKGGAA,16100
10,EKGKSIWIGRDNLEVNVETLALQWYEDQGFKGIHSETRIITTLFGILFWDIIF,55900
11,SFWNTAFHPVYFNTTDLVLSFPFLFLPSFSSFFSFLFCIVIFTIVQRLYVFIS,97000
12,KAAKRGRNARRKRKDKPKGQDHEDEKSKINDDELEYASPSNATVTNGPQTSPD,14300
13,HSACDIYYDNICLRLRLEGDLESYSYTARIVVVVLQLERRPMRGVPFITLVFD,29400
14,EPAVVKAVAAVAAQDGGDGREEHRREKKKKKKKREKREKRELVAGQEGGGGEG,< 6570
15,CNICVLLCQIIEVASLVEQRDTIELIKTRYLNRLKLMKPDDVLQTYVSTLLNA,32400
16,SLGMGLDYWARLSGLYLQKLGWGYRVWCFSFWMGLSLGFLLLFSSLGAYILFL,55400
17,PEEKKEKAAEGEATKKEGEVGKKKGKKGDKKKEASGEQAPAAAAPAEEKKAEQ,< 6570
18,AMKDIEIVKDEETGAPIVRLRGEAAAAAKKAGVQDITLSISHSDNQAIAVAVA,58900
19,RLLRLLLRLLRLLLLRLLLLLLLLLLLLLLLRLLLRLLVTLILFLNIQRVLIL,16300
